T1: human CD20 antigen (human, UniProt P11836 1-297)
T1 construct: whole, on cells; also called MS4A1
T1 sequence (looked up): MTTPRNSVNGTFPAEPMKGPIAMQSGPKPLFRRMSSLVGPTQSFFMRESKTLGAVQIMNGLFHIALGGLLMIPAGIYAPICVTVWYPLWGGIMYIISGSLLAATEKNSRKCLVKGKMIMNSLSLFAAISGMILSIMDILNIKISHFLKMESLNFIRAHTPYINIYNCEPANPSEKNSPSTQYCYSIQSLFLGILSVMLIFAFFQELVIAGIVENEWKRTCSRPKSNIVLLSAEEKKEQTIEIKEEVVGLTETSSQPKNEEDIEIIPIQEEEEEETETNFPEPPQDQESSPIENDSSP

B1: framework-re-engineered 1F5 antibody (antibody, V domains shown)
VH: QVQLVASGAEVNKPGASVKVSCKASGYTFTSYNMHWVRQPPGRGLEWIGAIYPGNGDTSYNQKFKGRVTITADKSTSTAYMELSSLRSEDTAVYYCARSHYGSNYVDYFDYWGQGTTVTVSS
VL: DIQLTQSPSSLSASVGDRVTITCRASSSLSFMHWYQQKPGQAPVPVIYATSNLASGVPSRFSGSGSGTEFTLTISSLQPEDFATYFCHQWSSNPLTFGAGTKLTVLR
notes: also called fr1F5
B2: murine 1F5 antibody (antibody, V domains shown)
VH: QVQLRQPGAELVKPGASVKMSCKASGYTFTSYNMHWVKQTPGQGLEWIGAIYPGNGDTSYNQKFKGKATLTADKSSSTAYMQLSSLTSEDSAVYYCARSHYGSNYVDYFDYWGQGTTLTVSS
VL: QIVLSQSPAILSASPGEKVTMTCRASSSLSFMHWYQQKPGSSPKPWIYATSNLASGVPARFSGSGSGTSYSLTISRVEAEDAATYFCHQWSSNPLTFGAGTKLELKR
notes: Mouse IgG with a kappa light chain, from hybridoma ATCC HB-9645; also called anti-CD20 mAb 1F5

Biological target: T1, human CD20 antigen
Assay: competition flow cytometry against FITC-conjugated fr1F5 (FIG. 6)

| Binder | binding result |
| --- | --- |
| B1 | binds |
| B2 | binds |
